In the supplement of paper PMC10126150:
± gives the standard deviation of the averaged measurements.

Test system: ATP
Experiment: switch fluorescence ratio, 500 uM ATP over buffer (Cy3 cluster intensity, sum of 5 cycles each) (fold (ratio)); higher = stronger signal-on switching upon ATP binding; sequences stand for … in TCGTCGGCAGCGTCAGATGTGTATAAGAGACAGTTTTTTTTTTTTTTTTTTTTTTTTT…TC
Conditions: aptamer strand: ATP DNA aptamer (quencher-CACCTGGGGGAGTATTGCGGAGGAAGG + anchor), 100 nM annealed; ATP concentration: 500 uM
Method in brief: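 The quencher-labelled ATP aptamer, at 100 nM, was annealed to Cy3-labelled switching-strand clusters on a modified Illumina MiSeq flow-cell. The clusters were imaged in selection buffer, then after 15 min with 500 uM ATP at 22 °C, and this buffer/ATP cycle ran five times with NaOH stripping and re-annealing between runs. Per-cluster fluorescence ratios, summed target-cycle over summed buffer-cycle Cy3 intensity, were averaged per switch-domain sequence. Clusters outside 100-1000 RFU were excluded.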
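Also: ATP exposure 15 min at 22 °C before imaging.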

Sequence	switch fluorescence ratio
AGGGCCGTAT	1.04 ± 0.056
AGGGCCTTAG	0.9733 ± 0.009
AGGGCGACAG	1.01 ± 0.012
AGGGCGGGTG	1.047 ± 0.0095
AGGGCGGTGT	0.991 ± 0.027
AGGGCGTCTA	1.015 ± 0.003
AGGGCGTCTC	0.981 ± 0.043
AGGGCGTTAG	1.01 ± 0.044
AGGGCTATTT	0.973 ± 0.01
AGGGCTGATA	1.009 ± 0.0013
AGGGCTGCCC	1 ± 0.021
AGGGCTGCGT	0.984 ± 0.017
AGGGCTGGGG	0.973 ± 0.019
AGGGCTTAGA	0.9905 ± 0.0033
AGGGGAAAAC	1.03 ± 0.044
AGGGGAAGGA	1 ± 0.049
AGGGGAATGG	0.997 ± 0.015
AGGGGACGAC	1.02 ± 0.027
AGGGGACGCC	0.9928 ± 0.0049
AGGGGACTAT	1 ± 0.013
AGGGGAGGAC	1.03 ± 0.02
AGGGGAGGCA	1.02 ± 0.089
AGGGGAGTGG	0.992 ± 0.038
AGGGGAGTTA	1.02 ± 0.051
AGGGGATAGG	0.98 ± 0.046

Sequence	switch fluorescence ratio
AGGGGATAGT	0.9659 ± 0.0091
AGGGGATGAA	1.04 ± 0.027
AGGGGATGTG	0.97 ± 0.048
AGGGGATTC	1.002 ± 0.0075
AGGGGCAAAC	1.45 ± 0.078
AGGGGCCCGC	0.98 ± 0.018
AGGGGCTGGG	0.99 ± 0.017
AGGGGCTGGT	0.997 ± 0.026
AGGGGCTTCG	1.04 ± 0.015
AGGGGCTTCT	1.06 ± 0.028
AGGGGCTTTA	1.14 ± 0.2
AGGGGGACGT	0.998 ± 0.024
AGGGGGAGAT	1.02 ± 0.042
AGGGGGAGGT	0.975 ± 0.017
AGGGGGATTG	0.987 ± 0.03
AGGGGGCAAT	1.11 ± 0.18
AGGGGGCCAG	1 ± 0.019
AGGGGGCGGG	1.03 ± 0.035
AGGGGGCGGT	0.959 ± 0.033
AGGGGGGAAT	1.03 ± 0.048
AGGGGGGACA	1.02 ± 0.084
AGGGGGGAGC	1.01 ± 0.029
AGGGGGGCCG	1.08 ± 0.019
AGGGGGGCTT	1.01 ± 0.054
AGGGGGGGAT	0.982 ± 0.029

Sequence	switch fluorescence ratio
AGGGGGGGCG	0.975 ± 0.05
AGGGGGGGT	1.05 ± 0.077
AGGGGGTAGT	0.983 ± 0.011
AGGGGGTATG	0.983 ± 0.014
AGGGGGTATT	1.01 ± 0.024
AGGGGGTCAG	0.986 ± 0.027
AGGGGGTT	1 ± 0.077
AGGGGGTTGT	0.995 ± 0.026
AGGGGGTTTA	0.999 ± 0.031
AGGGGGTTTT	1 ± 0.036
AGGGGTACGT	0.982 ± 0.011
AGGGGTACTT	1 ± 0.049
AGGGGTAGTT	1.01 ± 0.029
AGGGGTATT	1 ± 0.014
AGGGGTATTA	1.002 ± 0.01
AGGGGTGATA	1.023 ± 0.0047
AGGGGTGCCA	0.9529 ± 0.0048
AGGGGTTACG	0.981 ± 0.044
AGGGGTTATG	1 ± 0.021
AGGGGTTGGT	0.983 ± 0.027
AGGGGTTTGC	0.957 ± 0.021
AGGGTAAAAG	1.03 ± 0.024
AGGGTAACGA	0.999 ± 0.035
AGGGTACTGT	1.05 ± 0.092
AGGGTAGTGC	0.9869 ± 0.0091

Sequence	switch fluorescence ratio
AGGGTATTAG	0.995 ± 0.025
AGGGTATTCG	0.9981 ± 0.0049
AGGGTCAACG	1.018 ± 0.0099
AGGGTCAATG	0.983 ± 0.013
AGGGTCAGTG	1.02 ± 0.062
AGGGTCGGAT	0.972 ± 0.033
AGGGTCTGTA	0.939 ± 0.015
AGGGTCTGTT	0.978 ± 0.012
AGGGTGGAAA	1.02 ± 0.019
AGGGTGGGGT	0.977 ± 0.043
AGGGTGTGAC	1.01 ± 0.036
AGGGTTAGGT	1.003 ± 0.0028
AGGGTTGACA	0.981 ± 0.046
AGGGTTGACT	0.964 ± 0.012
AGGGTTTCCA	1.01 ± 0.06
AGGGTTTGGA	1 ± 0.02
AGGGTTTTAT	1.003 ± 0.0048
AGGTAAAGTT	0.972 ± 0.014
AGGTAAGTAG	1.01 ± 0.031
AGGTACAGGG	1.01 ± 0.041
AGGTACGGGG	0.971 ± 0.012
AGGTAGAGTG	0.948 ± 0.038
AGGTAGGCCA	0.951 ± 0.026
AGGTAGGCCT	0.991 ± 0.025
AGGTAGGTAA	1.03 ± 0.054

Sequence	switch fluorescence ratio
AGGTAGTGGG	0.974 ± 0.029
AGGTAGTGTC	1.03 ± 0.023
AGGTAGTGTG	0.989 ± 0.014
AGGTATAAGC	0.994 ± 0.043
AGGTATCAAT	1 ± 0.053
AGGTATGGCC	1.04 ± 0.091
AGGTATGGTT	0.984 ± 0.024
AGGTCAACCG	1.02 ± 0.02
AGGTCACAG	1 ± 0.03
AGGTCCGGTA	1.01 ± 0.011
AGGTCGCCTG	1.031 ± 0.0069
AGGTCGCGGT	0.994 ± 0.025
AGGTCGGACA	1.006 ± 0.0094
AGGTCGGGGA	1.05 ± 0.056
AGGTCGGTCT	0.995 ± 0.058
AGGTCGTTTT	0.991 ± 0.027
AGGTCTACTA	1.05 ± 0.059
AGGTGAAGGG	1.02 ± 0.018
AGGTGAGGGT	1.022 ± 0.0047
AGGTGAGGTA	1 ± 0.019
AGGTGATAGG	0.9825 ± 0.0059
AGGTGCATAC	1.45 ± 0.32
AGGTGCCAGG	1.07 ± 0.036
AGGTGGAAAC	1.01 ± 0.048
AGGTGGGCAG	0.984 ± 0.018

Sequence	switch fluorescence ratio
AGGTGGGGAG	0.998 ± 0.041
AGGTGGGTG	1.04 ± 0.1
AGGTGGTCTG	0.9885 ± 0.0047
AGGTGTAGCA	1.02 ± 0.051
AGGTGTGAGA	1.06 ± 0.044
AGGTGTGTTG	0.984 ± 0.034
AGGTTAAGTT	0.989 ± 0.021
AGGTTAGAAG	1.006 ± 0.0014
AGGTTAGCGT	0.9946 ± 0.0013
AGGTTAGGG	1 ± 0.064
AGGTTAGGTG	1.42 ± 0.34
AGGTTAGTAG	0.973 ± 0.0052
AGGTTAGTCG	1.01 ± 0.032
AGGTTATTTT	0.992 ± 0.04
AGGTTCACTT	0.998 ± 0.025
AGGTTCATTG	0.975 ± 0.021
AGGTTCCTAG	0.9775 ± 0.0049
AGGTTCGG	0.9937 ± 0.0069
AGGTTCTCGG	0.967 ± 0.026
AGGTTGAAGT	0.988 ± 0.011
AGGTTGCGAG	0.989 ± 0.019
AGGTTGGATC	0.995 ± 0.088
AGGTTGGCAA	1.07 ± 0.14
AGGTTGGTAA	0.969 ± 0.01
AGGTTTAATT	1.01 ± 0.015

Sequence	switch fluorescence ratio
AGGTTTGATC	1.006 ± 0.0096
AGGTTTTTAT	1.06 ± 0.16
AGGTTTTTGG	0.963 ± 0.012
AGGTTTTTTG	0.995 ± 0.016
AGTAAAAATG	0.982 ± 0.027
AGTAAAAGTT	0.989 ± 0.052
AGTAAAGATT	0.9995 ± 0.0041
AGTAAAGGCC	1.02 ± 0.08
AGTAAAGTCT	1.04 ± 0.035
AGTAAATTTA	1.001 ± 0.0046
AGTAAGAGGG	1.01 ± 0.012
AGTAAGGGGC	0.98 ± 0.019
AGTAAGGTTG	0.961 ± 0.054
AGTAAGTTGG	0.967 ± 0.022
AGTAATATAT	0.976 ± 0.028
AGTAATGTGC	0.996 ± 0.022
AGTACCATTG	0.997 ± 0.015
AGTACGCAAG	1.12 ± 0.039
AGTACGTGCG	0.9781 ± 0.0081
AGTACTAAAG	1.01 ± 0.033
AGTAGAAGAT	0.9552 ± 0.0071
AGTAGCGTCG	0.985 ± 0.048
AGTAGGAGCT	0.962 ± 0.026
AGTAGGCCTA	1.04 ± 0.025
AGTAGGCGGT	0.993 ± 0.023

Sequence	switch fluorescence ratio
AGTAGGGGCG	1.03 ± 0.033
AGTAGGGGGC	1 ± 0.035
AGTAGGGGGG	0.988 ± 0.033
AGTAGTCGTC	0.99 ± 0.058
AGTAGTGAGG	0.979 ± 0.017
AGTAGTTCGG	1.019 ± 0.0075
AGTAGTTGAA	0.988 ± 0.044
AGTAGTTTCG	0.983 ± 0.037
AGTATAGGGC	0.989 ± 0.049
AGTATAGTGG	1.03 ± 0.022
AGTATATGCC	1 ± 0.034
AGTATATTGG	0.99 ± 0.044
AGTATGGCGG	0.975 ± 0.068
AGTATTGGTG	0.956 ± 0.026
AGTCAAAAAG	0.985 ± 0.051
AGTCACAGCT	0.982 ± 0.032
AGTCACGGGT	1.03 ± 0.016
AGTCACGTAG	1.03 ± 0.019
AGTCATCGGC	1.01 ± 0.056
AGTCATTATG	1 ± 0.036
AGTCCGATGC	1.51 ± 0.17
AGTCCGGGTT	0.991 ± 0.036
AGTCCTCGGA	0.96685 ± 0.00022
AGTCCTTTT	0.9882 ± 0.0095
AGTCGACTGT	0.956 ± 0.02
